Results from article PMC1334386 (PLoS Biology, 2006).

B1: MDM2 fragment (residues 170–232) (domain or fragment, human, UniProt Q00987 170-232, looked up)
chain: ENSDELSGERQRKRHKSDSISLSFDESLALCVIREICCERSSSSESTGTPSNPDLDAGVSEHS
notes: source: purified to homogeneity as previously described
B2: MDM2 peptide (residues 208–242) (peptide, UniProt Q00987 208-242, looked up)
peptide: ERSSSSESTGTPSNPDLDAGVSEHSGDWLDQDSVS
notes: human MDM2, residues 208-242; also called MDM2 (residues 208–242) peptide
B3: MDM2 (residues 208–289) (domain or fragment, human, UniProt Q00987 208-289, looked up)
chain: ERSSSSESTGTPSNPDLDAGVSEHSGDWLDQDSVSDQFSVEFEVESLDSEDYSLSEEGQELSDEDDEVYQVTVYQAGESDTD
notes: also called MDM2 fragment; source: purified to homogeneity as previously described
B4: MDM2 fragment (residues 223–289) (domain or fragment, human, UniProt Q00987 223-289, looked up)
chain: DLDAGVSEHSGDWLDQDSVSDQFSVEFEVESLDSEDYSLSEEGQELSDEDDEVYQVTVYQAGESDTD
notes: as for B1

What was measured:
Conditions in all cases: both partners purified
[1] = biological target: T1, HAUSP TRAF-like domain (residues 53–206) (UniProt Q93009 53-206); experiment: SEC; gel filtration on Superdex-200 (10/30); proteins incubated at 4 °C for at least 45 min; 25 mM Tris (pH 8.0), 100 mM NaCl, 2 mM DTT; fractions on SDS-PAGE, Coomassie
T1 construct: Cloned into pGEX-2T; source: E. coli BL21(DE3), purified to homogeneity
T1 sequence (Q93009 53-206): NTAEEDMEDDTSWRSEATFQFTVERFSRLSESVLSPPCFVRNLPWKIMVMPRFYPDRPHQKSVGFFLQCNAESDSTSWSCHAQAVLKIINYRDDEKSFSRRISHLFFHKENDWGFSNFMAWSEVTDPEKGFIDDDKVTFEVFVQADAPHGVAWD

[2] = biological target: T1, HAUSP TRAF-like domain (residues 53–206); experiment: ITC; 10 mM HEPES (pH 8.0), 100 mM NaCl; 4 °C
[3] = biological target: T2, HAUSP TRAF-like domain (residues 1–206) (UniProt Q93009 1-206); experiment: SEC; gel filtration on Superdex-200 (10/30); proteins incubated at 4 °C for at least 45 min; 25 mM Tris (pH 8.0), 100 mM NaCl, 2 mM DTT; fractions on SDS-PAGE, Coomassie
T2 construct: Construct not described in the methods; source: purified to homogeneity as previously described
T2 sequence (Q93009 1-206): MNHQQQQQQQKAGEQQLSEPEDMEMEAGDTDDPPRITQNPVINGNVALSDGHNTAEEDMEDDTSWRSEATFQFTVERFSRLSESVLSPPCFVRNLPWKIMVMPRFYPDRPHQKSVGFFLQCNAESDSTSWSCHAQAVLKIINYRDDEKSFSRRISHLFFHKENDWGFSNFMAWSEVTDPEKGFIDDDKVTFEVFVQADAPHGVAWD

Binder | binding result [1] | other results
B1 | binds | –
B2 | – | Kd [2]: 3000 nM
B3 | – | binding result [3]: binds
B4 | binds | –
